Test results as given in patent US20240117018A1.

How the values were obtained:
Test in all cases: cell-based or functional assay
[1] = target: 0260.v5.c36 Env pseudovirus (HIV-1)
[2] = target: 1012_11_TC21_3257 Env pseudovirus (HIV-1)
[3] = target: 1054_07_TC4_1499 Env pseudovirus (HIV-1)
[4] = target: 1056_10_TA11_1826 Env pseudovirus (HIV-1)
[5] = target: 263-8 Env pseudovirus (HIV-1)
[6] = target: 6244_13_B5_4576 Env pseudovirus (HIV-1)
[7] = target: 7030102001E5(Rev-) Env pseudovirus (HIV-1)
[8] = target: 9004SS_A3_4 Env pseudovirus (HIV-1)
[9] = target: AC10.0.29 Env pseudovirus (HIV-1)
[10] = target: CAAN5342.A2 Env pseudovirus (HIV-1)
[11] = target: CNE19 Env pseudovirus (HIV-1)
[12] = target: CNE30 Env pseudovirus (HIV-1)
[13] = target: CNE52 Env pseudovirus (HIV-1)
[14] = target: CNE58 Env pseudovirus (HIV-1)
[15] = target: Ce0393_C3 Env pseudovirus (HIV-1)
[16] = target: Ce1172_H1 Env pseudovirus (HIV-1)
[17] = target: Ce1176_A3 Env pseudovirus (HIV-1)
[18] = target: Ce2010_F5 Env pseudovirus (HIV-1)
[19] = target: Ce703010054_2A2 Env pseudovirus (HIV-1)
[20] = target: Du172.17 Env pseudovirus (HIV-1)
[21] = target: Du422.1 Env pseudovirus (HIV-1)
[22] = target: MS208.A1 Env pseudovirus (HIV-1)
[23] = target: MuLV envelope (negative control pseudovirus) (MuLV)
[24] = target: PVO.4 Env pseudovirus (HIV-1)
[25] = target: Q461.e2 Env pseudovirus (HIV-1)
[26] = target: REJO4541.67 Env pseudovirus (HIV-1)
[27] = target: SC05_8C11_2344 Env pseudovirus (HIV-1)
[28] = target: SC422661.8 Env pseudovirus (HIV-1)
[29] = target: T257-31 Env pseudovirus (HIV-1)
[30] = target: THRO4156.18 Env pseudovirus (HIV-1)
[31] = target: WITO4160.33 Env pseudovirus (HIV-1)
[32] = target: ZM109F.PB4 Env pseudovirus (HIV-1)
[33] = target: ZM214M.PL15 Env pseudovirus (HIV-1)
[34] = target: ZM247v1(Rev-) Env pseudovirus (HIV-1)
[35] = target: ZM249M.PL1 Env pseudovirus (HIV-1)
[36] = target: ZM53M.PB12 Env pseudovirus (HIV-1)

B1: N49P23 (antibody, V domains shown)
VH: QVRLVQSGAGARKTGASMKLSCSTSGYTFTTHHGHFINWVRQARGQGLEWMGWMNPMTGQMNIEGKFQGRVTLTRDIYSDTAYMEMTRLTTGDTGTYYCARGDFGQNYPFHYWGQGSLVIVSS
VL: LSALTQPASVSGSPGQSVTISCSGTNRYLVSWYQQHPDKAPKLIIYDDNKRPSGISDRFSASRPDDTASLTISGLQTGDEATYWCASYERFGGGTRLTVLS
For B1, the IC50 [1] was 0.261 µg/mL, the IC80 [1] was 0.919 µg/mL and the MPI [1] was 100. It also gave an IC50 [2] of 0.013 µg/mL, an IC80 [2] of 0.085 µg/mL and an MPI [2] of 100. For the same binder, the IC50 [3] was 0.272 µg/mL, the IC80 [3] was 1.21 µg/mL and the MPI [3] was 100. For the same binder, the IC50 [4] was 0.075 µg/mL, the IC80 [4] was 0.483 µg/mL and the MPI [4] was 100. For the same binder, the IC50 [5] was 0.012 µg/mL, the IC80 [5] was 0.096 µg/mL and the MPI [5] was 100. It also gave an IC50 [6] of 0.151 µg/mL, an IC80 [6] of 0.57 µg/mL and an MPI [6] of 100. The IC50 [7] was 0.172 µg/mL, the IC80 [7] was 0.797 µg/mL and the MPI [7] was 100. For the same binder, the IC50 [8] was 0.043 µg/mL, the IC80 [8] was 0.223 µg/mL and the MPI [8] was 100. For the same binder, the IC50 [9] was over 50 µg/mL, the IC80 [9] was over 50 µg/mL and the MPI [9] was 0. The IC50 [10] was 0.412 µg/mL, the IC80 [10] was 1.38 µg/mL and the MPI [10] was 100. The IC50 [11] was over 50 µg/mL, the IC80 [11] was over 50 µg/mL and the MPI [11] was 40. For the same binder, the IC50 [12] was 0.143 µg/mL, the IC80 [12] was 0.68 µg/mL and the MPI [12] was 100. The IC50 [13] was 0.014 µg/mL, the IC80 [13] was 0.051 µg/mL and the MPI [13] was 100. It also gave an IC50 [14] of over 50 µg/mL, an IC80 [14] of over 50 µg/mL and an MPI [14] of 9. It also gave an IC50 [15] of over 50 µg/mL, an IC80 [15] of over 50 µg/mL and an MPI [15] of 29. It also gave an IC50 [16] of over 50 µg/mL, an IC80 [16] of over 50 µg/mL and an MPI [16] of 0. It also gave an IC50 [17] of 0.297 µg/mL, an IC80 [17] of 1.38 µg/mL and an MPI [17] of 100. It also gave an IC50 [18] of 1.59 µg/mL, an IC80 [18] of 11.6 µg/mL and an MPI [18] of 91. It also gave an IC50 [19] of over 50 µg/mL, an IC80 [19] of over 50 µg/mL and an MPI [19] of 35. It also gave an IC50 [20] of over 50 µg/mL, an IC80 [20] of over 50 µg/mL and an MPI [20] of 45. For the same binder, the IC50 [21] was over 50 µg/mL, the IC80 [21] was over 50 µg/mL and the MPI [21] was 4. For the same binder, the IC50 [22] was 0.048 µg/mL, the IC80 [22] was 0.279 µg/mL and the MPI [22] was 100. It also gave an IC50 [23] of over 50 µg/mL, an IC80 [23] of over 50 µg/mL and an MPI [23] of 9. It also gave an IC50 [24] of 0.087 µg/mL, an IC80 [24] of 0.43 µg/mL and an MPI [24] of 100. It also gave an IC50 [25] of 0.099 µg/mL, an IC80 [25] of 0.464 µg/mL and an MPI [25] of 100. It also gave an IC50 [26] of 0.008 µg/mL, an IC80 [26] of 0.05 µg/mL and an MPI [26] of 100. For the same binder, the IC50 [27] was 0.133 µg/mL, the IC80 [27] was 0.548 µg/mL and the MPI [27] was 100. For the same binder, the IC50 [28] was 0.069 µg/mL, the IC80 [28] was 0.245 µg/mL and the MPI [28] was 100. The IC50 [29] was 0.178 µg/mL, the IC80 [29] was 1.17 µg/mL and the MPI [29] was 100. It also gave an IC50 [30] of 1.98 µg/mL, an IC80 [30] of 10.7 µg/mL and an MPI [30] of 97. It also gave an IC50 [31] of 0.045 µg/mL, an IC80 [31] of 0.205 µg/mL and an MPI [31] of 100. The IC50 [32] was 0.039 µg/mL, the IC80 [32] was 0.18 µg/mL and the MPI [32] was 100. For the same binder, the IC50 [33] was 0.061 µg/mL, the IC80 [33] was 0.614 µg/mL and the MPI [33] was 100. It also gave an IC50 [34] of over 50 µg/mL, an IC80 [34] of over 50 µg/mL and an MPI [34] of 24. For the same binder, the IC50 [35] was over 50 µg/mL, the IC80 [35] was over 50 µg/mL and the MPI [35] was 2. The IC50 [36] was 0.135 µg/mL, the IC80 [36] was 0.651 µg/mL and the MPI [36] was 100.

B2: N49P22 (antibody, V domains shown)
V domain 1: HIQLLQSGPQVKKSGDTVRISCETSGYNFVDSRIHWVRQTPEKRLRWMGWINPLQGGVNYAPEFQGRIRMTRDTFIDTVYVDLSGLTPADTAYYYCARGIDGKSYPFHFWGHGTRVTVFS
V domain 2: RFALTQPASVSGSPGQTITITCAGGSVSWFHFPPGKTPRLIIYESSKRPSGVSPRFSGSQSGSTASLIISGLQSDDEGTYFCSILEFFGRGTLVTVLS
B2 gave an IC50 [1] of 1.67 µg/mL, an IC80 [1] of 14.4 µg/mL and an MPI [1] of 93. The IC50 [2] was 15.7 µg/mL, the IC80 [2] was over 50 µg/mL and the MPI [2] was 53. It also gave an IC50 [3] of 0.654 µg/mL, an IC80 [3] of 2.89 µg/mL and an MPI [3] of 100. It also gave an IC50 [4] of 2.99 µg/mL, an IC80 [4] of over 50 µg/mL and an MPI [4] of 69. For the same binder, the IC50 [5] was 1.83 µg/mL, the IC80 [5] was 18.5 µg/mL and the MPI [5] was 89. For the same binder, the IC50 [6] was 0.565 µg/mL, the IC80 [6] was 2.48 µg/mL and the MPI [6] was 97. It also gave an IC50 [7] of over 50 µg/mL, an IC80 [7] of over 50 µg/mL and an MPI [7] of 21. It also gave an IC50 [8] of over 50 µg/mL, an IC80 [8] of over 50 µg/mL and an MPI [8] of 42. It also gave an IC50 [9] of over 50 µg/mL, an IC80 [9] of over 50 µg/mL and an MPI [9] of 0. It also gave an IC50 [10] of 0.425 µg/mL, an IC80 [10] of 1.88 µg/mL and an MPI [10] of 99. It also gave an IC50 [11] of 0.873 µg/mL, an IC80 [11] of 8.19 µg/mL and an MPI [11] of 92. It also gave an IC50 [12] of over 50 µg/mL, an IC80 [12] of over 50 µg/mL and an MPI [12] of 30. The IC50 [13] was 1.7 µg/mL, the IC80 [13] was 10 µg/mL and the MPI [13] was 91. It also gave an IC50 [14] of 28.4 µg/mL, an IC80 [14] of over 50 µg/mL and an MPI [14] of 57. It also gave an IC50 [15] of over 50 µg/mL, an IC80 [15] of over 50 µg/mL and an MPI [15] of 12. The IC50 [16] was over 50 µg/mL, the IC80 [16] was over 50 µg/mL and the MPI [16] was 0. It also gave an IC50 [17] of over 50 µg/mL, an IC80 [17] of over 50 µg/mL and an MPI [17] of 23. It also gave an IC50 [18] of 2.05 µg/mL, an IC80 [18] of 11.7 µg/mL and an MPI [18] of 93. The IC50 [19] was over 50 µg/mL, the IC80 [19] was over 50 µg/mL and the MPI [19] was 0. The IC50 [20] was over 50 µg/mL, the IC80 [20] was over 50 µg/mL and the MPI [20] was 4. The IC50 [21] was over 50 µg/mL, the IC80 [21] was over 50 µg/mL and the MPI [21] was 4. It also gave an IC50 [22] of over 50 µg/mL, an IC80 [22] of over 50 µg/mL and an MPI [22] of 17. For the same binder, the IC50 [23] was over 50 µg/mL, the IC80 [23] was over 50 µg/mL and the MPI [23] was 8. It also gave an IC50 [24] of 0.433 µg/mL, an IC80 [24] of 1.49 µg/mL and an MPI [24] of 100. The IC50 [25] was 11.2 µg/mL, the IC80 [25] was over 50 µg/mL and the MPI [25] was 66. For the same binder, the IC50 [26] was 0.792 µg/mL, the IC80 [26] was 12.1 µg/mL and the MPI [26] was 84. The IC50 [27] was 0.251 µg/mL, the IC80 [27] was 2.16 µg/mL and the MPI [27] was 97. The IC50 [28] was 0.12 µg/mL, the IC80 [28] was 0.544 µg/mL and the MPI [28] was 100. The IC50 [29] was over 50 µg/mL, the IC80 [29] was over 50 µg/mL and the MPI [29] was 43. The IC50 [30] was over 50 µg/mL, the IC80 [30] was over 50 µg/mL and the MPI [30] was 32. The IC50 [31] was 4.86 µg/mL, the IC80 [31] was over 50 µg/mL and the MPI [31] was 74. It also gave an IC50 [32] of over 50 µg/mL, an IC80 [32] of over 50 µg/mL and an MPI [32] of 1. It also gave an IC50 [33] of over 50 µg/mL, an IC80 [33] of over 50 µg/mL and an MPI [33] of 25. For the same binder, the IC50 [34] was over 50 µg/mL, the IC80 [34] was over 50 µg/mL and the MPI [34] was 11. For the same binder, the IC50 [35] was over 50 µg/mL, the IC80 [35] was over 50 µg/mL and the MPI [35] was 0. For the same binder, the IC50 [36] was 1.2 µg/mL, the IC80 [36] was 11.8 µg/mL and the MPI [36] was 91.
